Substrate: O=c1ccn([C@@H]2O[C@H](COP(=O)(O)OP(=O)(O)O[C@H]3O[C@H](CO)[C@H](O)[C@H](O)[C@H]3O)[C@@H](O)[C@H]2O)c(=O)[nH]1
Assay: [3H]Gal transfer, Sep-Pak C18 scintillation counting
Assay type: biochemical, Globisporangium ultimum
Conditions: donor, maltose-pNP acceptor, 2 mM MnCl2, pH 7.0, 37°C

B1: PuGat1 (Globisporangium ultimum DAOM BR144) (protein)
chain: MTVGTRRAAYATLITSDAYVMGVEALVYSLFKARVAFPLVVLHSSQVTQPTVAKLTRFCAPFQSSTWRISFRSVPDIGIPDEVTDRSTVHVPGWVNSGYTKLHIFAMDDFEQIVYIDADAIVLQNVDELFDRSTSFAAAPDVFPPDRFNAGVLVIRPNKQLFADLLAKAKELKSYDGGDTGFLNAFFPKWFESDAASRLPFGYNAQRTMYWLVNGKNPGYWNAVQPLKILHYSSNPKPWEDPSRKGDLEILWWQMYTESRCMSFLG
Km: 15 µM
